The results in this text go back to patent US20260055210A1 (MONTEFIORE MEDICAL CENTER, published 2026).

In this test the target is T1, Human IgG1 Fc (human, UniProt P01857-1 100-330 = IgG part, limits assumed).
T1 construct: domain: Fc; Negative control; also called human IgG1 Fc domain
The test can be described thus: flow cytometry, percent of bound cells, cMPL-expressing HEK293 cells. From the text: To study the binding capabilities of the fusion polypeptide provided herein to thrombopoietin receptors, the fusion polypeptides were contacted with cells expressing thrombopoietin receptor cMPL. Mouse or human thrombopoietin receptor cMPL was expressed on the surface of Freestyle™ HEK293 cell line. Mouse or human thrombopoietin receptor cMPL were expressed as a fusion polypeptide with either GPF or mCherry. Expression of cMPL receptors was confirmed by measuring fluorescent signal. As a general control, PD1 protein binding to PDL1-expressing cells was used. Human IgG1 Fc and secondary antibody were used as a negative control since they would not be expected to bind to cMPL. […] The cMPL expressing cells were treated with Nplate (Romiplostim) as the positive control. FLT3L-romiplostim fusion polypeptide with a His-Tag, FLT3L-romiplostim fusion polypeptide without a His-Tag were tested. Binding was analyzed using a fluorescent secondary antibody against IgG1 domain of the polypeptide. The percentages of cells bound to the tested polypeptide were quantified.
(In flow cytometry, cells or beads pass a laser one at a time.)

B1: human thrombopoietin receptor cMPL expressed on the surface of Freestyle HEK293 cells (receptor, UniProt P40238 26-635, looked up)
chain: QDVSLLASDSEPLKCFSRTFEDLTCFWDEEEAAPSGTYQLLYAYPREKPRACPLSSQSMPHFGTRYVCQFPDQEEVRLFFPLHLWVKNVFLNQTRTQRVLFVDSVGLPAPPSIIKAMGGSQPGELQISWEEPAPEISDFLRYELRYGPRDPKNSTGPTVIQLIATETCCPALQRPHSASALDQSPCAQPTMPWQDGPKQTSPSREASALTAEGGSCLISGLQPGNSYWLQLRSEPDGISLGGSWGSWSLPVTVDLPGDAVALGLQCFTLDLKNVTCQWQQQDHASSQGFFYHSRARCCPRDRYPIWENCEEEEKTNPGLQTPQFSRCHFKSRNDSIIHILVEVTTAPGTVHSYLGSPFWIHQAVRLPTPNLHWREISSGHLELEWQHPSSWAAQETCYQLRYTGEGHQDWKVLEPPLGARGGTLELRPRSRYRLQLRARLNGPTYQGPWSSWSDPTRVETATETAWISLVTALHLVLGLSAVLGLLLLRWQFPAHYRRLRHALWPSLPDLHRVLGQYLRDTAALSPPKATVSDTCEEVEPSLLEILPKSSERTPLPLCSSQAQMDYRRLQPSCLGTMPLSVCPPMAESGSCCTTHIANHSYLPLSYWQQP
notes: whole, on cells; also called human cMPL; human cMLP; not shown: Fused with either GFP (printed 'GPF') or mCherry
In the case of B1, the binding result was “no binding”.

B2: mouse thrombopoietin receptor cMPL expressed on the surface of Freestyle HEK293 cells (receptor, UniProt Q08351 26-625, looked up)
chain: QDVFLLALGTEPLNCFSQTFEDLTCFWDEEEAAPSGTYQLLYAYRGEKPRACPLYSQSVPTFGTRYVCQFPAQDEVRLFFPLHLWVKNVSLNQTLIQRVLFVDSVGLPAPPRVIKARGGSQPGELQIHWEAPAPEISDFLRHELRYGPTDSSNATAPSVIQLLSTETCCPTLWMPNPVPVLDQPPCVHPTASQPHGPAPFLTVKGGSCLVSGLQAGKSYWLQLRSQPDGVSLRGSWGPWSFPVTVDLPGDAVTIGLQCFTLDLKMVTCQWQQQDRTSSQGFFRHSRTRCCPTDRDPTWEKCEEEEPRPGSQPALVSRCHFKSRNDSVIHILVEVTTAQGAVHSYLGSPFWIHQAVLLPTPSLHWREVSSGRLELEWQHQSSWAAQETCYQLRYTGEGREDWKVLEPSLGARGGTLELRPRARYSLQLRARLNGPTYQGPWSAWSPPARVSTGSETAWITLVTALLLVLSLSALLGLLLLKWQFPAHYRRLRHALWPSLPDLHRVLGQYLRDTAALSPSKATVTDSCEEVEPSLLEILPKSSESTPLPLCPSQPQMDYRGLQPCLRTMPLSVCPPMAETGSCCTTHIANHSYLPLSYWQQP
notes: whole, on cells; also called mouse cMPL; mouse cMLP; not shown: Fused with either GFP (printed 'GPF') or mCherry
Turning to B2, the binding result is recorded as “no binding”.
